T1: LbuC2c2-WT (Leptotrichia buccalis, UniProt C7NBY4 1-1159)
T1 sequence: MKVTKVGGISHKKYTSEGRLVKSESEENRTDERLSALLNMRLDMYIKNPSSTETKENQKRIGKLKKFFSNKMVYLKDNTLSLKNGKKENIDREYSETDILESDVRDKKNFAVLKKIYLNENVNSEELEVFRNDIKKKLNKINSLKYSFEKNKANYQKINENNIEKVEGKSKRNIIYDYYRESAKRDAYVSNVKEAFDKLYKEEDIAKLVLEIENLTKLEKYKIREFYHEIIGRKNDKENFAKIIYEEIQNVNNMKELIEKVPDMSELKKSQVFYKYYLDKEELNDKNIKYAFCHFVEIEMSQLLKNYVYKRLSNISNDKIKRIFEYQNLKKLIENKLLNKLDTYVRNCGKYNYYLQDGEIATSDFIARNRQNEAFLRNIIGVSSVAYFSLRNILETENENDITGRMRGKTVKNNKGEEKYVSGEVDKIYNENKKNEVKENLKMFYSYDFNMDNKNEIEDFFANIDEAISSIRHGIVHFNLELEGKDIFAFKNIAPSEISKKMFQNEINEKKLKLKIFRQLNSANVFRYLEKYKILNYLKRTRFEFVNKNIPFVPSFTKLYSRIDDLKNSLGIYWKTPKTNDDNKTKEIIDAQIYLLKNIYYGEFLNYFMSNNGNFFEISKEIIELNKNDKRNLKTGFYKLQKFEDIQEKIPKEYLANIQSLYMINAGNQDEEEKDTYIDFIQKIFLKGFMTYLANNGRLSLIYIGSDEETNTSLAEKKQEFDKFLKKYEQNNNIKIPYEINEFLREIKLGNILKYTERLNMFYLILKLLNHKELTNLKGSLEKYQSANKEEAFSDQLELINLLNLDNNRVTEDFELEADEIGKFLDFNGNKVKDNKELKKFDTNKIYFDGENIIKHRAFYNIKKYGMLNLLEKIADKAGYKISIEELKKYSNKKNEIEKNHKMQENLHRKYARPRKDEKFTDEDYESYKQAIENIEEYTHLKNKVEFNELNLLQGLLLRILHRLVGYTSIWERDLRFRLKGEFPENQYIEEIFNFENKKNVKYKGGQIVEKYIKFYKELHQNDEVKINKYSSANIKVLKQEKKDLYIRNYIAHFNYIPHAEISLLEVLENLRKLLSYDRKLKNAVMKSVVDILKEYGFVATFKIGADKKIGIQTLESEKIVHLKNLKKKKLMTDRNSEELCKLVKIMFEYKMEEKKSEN


Molecular target: T1, LbuC2c2-WT
Assay: filter binding

Binder	Kd [nM]
mature crRNA-A_GG (crLbu_A_GG_AES432) (structured_RNA) RNA: GGCCACCCCAAAAAUGAAGGGGACUAAAACAGGGGCAGAGAUGAUGACCCU	27.1 ± 7.5
mature crRNA-A_GA (crLbu_A_mature_GA_SCK340) (structured_RNA) RNA: GACCACCCCAAAAAUGAAGGGGACUAAAACAGGGGCAGAGAUGAUGACCCU	4.65 ± 0.6

Source: publication PMC5576363
